Results: EP4722241A1 (Jiksak Bioengineering, Inc., dated 2024)
Numbering of substitutions follows the chain as printed.

T1: pan-hSYT2 (antigenic peptide for panning, Human SYT2 position 1-62) (human, lysine residue bound to biotin (position marked only in a picture of the sequence))
T1 construct: Synthetic biotinylated peptide, immobilised on streptavidin biosensors in the Octet measurements; also called N-terminal domain of human Synaptotagmin 2
T1 peptide: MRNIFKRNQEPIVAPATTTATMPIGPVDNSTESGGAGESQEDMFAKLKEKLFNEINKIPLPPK

B1: first monoclonal antibody according to the present invention (antibody, human IgG1, V domains shown)
VH: EVQLQESGAELVRPGASVKLSCKASGYTFTDYEMHWVKQTPVHGLEWIGAIDPETGGTAYNQKFKGKATLTADKSSSTAYMELRSLTSEDSAVYYCTRGNDGYNEDYWGQGTTLTVSS
VL: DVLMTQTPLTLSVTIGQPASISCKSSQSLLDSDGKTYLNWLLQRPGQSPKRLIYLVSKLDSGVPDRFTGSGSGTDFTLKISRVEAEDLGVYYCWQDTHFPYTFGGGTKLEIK
notes: Mouse VH and VL from a phage display scFv clone; also called first antibody; first anti-SYT2 antibody
B2: second monoclonal antibody according to the present invention (antibody, human IgG1, V domains shown)
VH: B1 VH with E1Q, E6Q, T113S
VL: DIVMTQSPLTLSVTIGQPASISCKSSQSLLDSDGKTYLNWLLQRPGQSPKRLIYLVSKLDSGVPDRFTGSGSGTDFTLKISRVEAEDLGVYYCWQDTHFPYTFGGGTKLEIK
notes: also called second antibody; second anti-SYT2 antibody

Assays:
[1] = target: T1, pan-hSYT2 (antigenic peptide for …); assay: BLI (Octet RED96e), biotinylated pan-hSYT2 on streptavidin biosensor, antigen loaded at 0.05 ug/mL
[2] = target: T1, pan-hSYT2 (antigenic peptide for …); assay: BLI (Octet RED96e), same manner as Example 2, antigen loaded at 0.2 ug/mL

| Binder | Kd [1] [nM] | koff [1] [s⁻¹] | kon [1] [M⁻¹ s⁻¹] | koff [2] [s⁻¹] |
| --- | --- | --- | --- | --- |
| B1 | 0.0267 | 7.01e-06 | 263000 |  |
| B2 |  |  |  | 1.35e-05 |
